From patent publication US20090047211A1

B1: MAb MN (antibody, IgG2a, V domains shown)
VH: QVQLQQPGAELVKPGASMKLSCKASGYTFTSYWMHWVKQRPGQGLEWIGMIHPNSDNTIYYEKFKSKATLTVDKSSSTAYMQLSSLTSEDSAVYYCAIIITPVVPKFDYWGQGTTLTVSS
VL: DIVMTQSHQFMSTSVGDRVSVTCKASHDVGTSVAWYQQKPGQSPKLLIYWASTRHTGVPDRFTGSGSGTDFTLTISNVQSEDLADYFCQQYSSYPLTFGAGTKLELKR
B2: MAb MB (antibody, IgG2a, V domains shown)
VH: EVKLVESGGGLVQPGGSLSLSCAASGFTFTDYYMSWVRQPPGRALEWLGFIRGKANGYTTEYSASVKGRFTISRDYSQSILYLHMNALRAEDSATYSCARYYYSNYVWYFDVWGTGTTVTVSS
VL: DIVMTQSQKFMSTSVGDRVSVTCKASQNVGTNVAWYQQKPGLSPKVLIHSASYRFSGVPDRFTGSGSGTDFTLSISNVQSEDLAKYFCQQYNSYPLTFGAGTKLELKR

Experiments:
[1] = biological target: mesothelin-Fc fusion protein (extracellular domain of human mesothelin fused with rabbit IgG Fc) (rabbit; human) (UniProt Q13421); test: Biacore, affinity to mesothelin-Fc in solution
[2] = biological target: mesothelin-Fc fusion protein (extracellular domain of human mesothelin fused with rabbit IgG Fc) (rabbit; human) (UniProt Q13421); test: Western blot on SDS-denatured mesothelin-Fc, MAb 1 µg/ml
[3] = biological target: mesothelin (native, on mesothelin-expressing human cells and in mesothelioma tissue) (human) (UniProt Q13421); test: flow cytometry on H226 cells, MAb 1 µg/ml, PE-labeled anti-mouse IgG; conditions: scale: log geometric mean of fluorescence intensity
[4] = biological target: mesothelin-Fc fusion protein (extracellular domain of human mesothelin fused with rabbit IgG Fc) (rabbit; human) (UniProt Q13421); test: ELISA on plates coated with mesothelin-Fc, HRP-labeled anti-mouse IgG
[5] = biological target: mesothelin-Fc fusion protein (extracellular domain of human mesothelin fused with rabbit IgG Fc) (rabbit; human) (UniProt Q13421); test: ELISA on mesothelin-Fc (summary of Table 1)
[6] = biological target: mesothelin-Fc fusion protein (extracellular domain of human mesothelin fused with rabbit IgG Fc) (rabbit; human) (UniProt Q13421); test: Western blot on SDS-denatured mesothelin-Fc
[7] = biological target: mesothelin-Fc fusion protein (extracellular domain of human mesothelin fused with rabbit IgG Fc) (rabbit; human) (UniProt Q13421); test: Western blot on mesothelin-Fc (summary of Table 1)

Molecule | Kd [1] | minimum amount of mesothelin-Fc detected in Western blot [2] | FACS reactivity to H226 cells (log geometric mean of fluorescence intensity) [3] | amount of MAb that showed OD450 = 0.5 in ELISA [4] | fold reactivity in ELISA against the K1 and 5B2 antibodies [5] | fold sensitivity in Western blot against MAbs K1 and 5B2 [6] | fold sensitivity in Western blot against the K1 and 5B2 antibodies [7]
MAb K1 (antibody) | 12 nM | 25 ng | 2.5 | 1000 ng/mL | – | – | –
B1 | 1 nM | 2 ng | 3.5 | 1.1 ng/mL | 500 fold | 10 fold | 12 fold
B2 | 0.6 nM | 2 ng | 3.3 | 1.9 ng/mL | 500 fold | 10 fold | 12 fold
